Measured values as given in paper doi:10.1101/2021.03.10.433854.
“And” between values parts separate entries of the source, which are not always exact repeats. Identical values can stand only once. Like-named read-outs stand apart in the source and are kept apart here.

Key:
Assay in all cases: SPR
[1] = target: catalytic domain of human AURKA (amino acids 122-430) (human)
[2] = target: catalytic domain of human AURKA (amino acids 122-430) (human); remark: listed apart in the source
[3] = target: catalytic domain of human AURKA (amino acids 122-430) (human); remark: listed apart in the source

Kd [1]: > 15000 nM | Kd [2]: 990 nM | koff [2]: 0.0659 s⁻¹ | kon [2]: 63000 M⁻¹ s⁻¹ | Kd [3]: 690 nM and 4000 nM
Substance: AURKA interacting region (AIR) of N-Myc (N-Myc residues 61-89) (from UniProt P04198 61-89) (peptide)
